Data published in the DeepSol protein solubility set.

Test: soluble on expression in E. coli; label from the status in PepcDB or PDB records

Row | Sequence | soluble on expression in E. coli
1 | MSLLIKFESKSARVKGISFHPTRPWVLTSLHSGVIQLWDYRMCVLLEKFDEHDGPVRGICFHHDQPIFVSGGDDYKIKVWNYKQKRCIFTLLGHLDYIRTTFFHHKYPWIISASDDQTVRIWNWQSRNSIAILTGHNHYVMCAQFHPTEDLVASASLDQTVRVWDISGLRKKQMPGGGAPSRPTGGQQAELFGQPDAVVKHVLEGHDRGVNWVAFHHTNPILVSGSDDRQVKIWRYNETKAWELDSCRGHYNNVSSVIFHPNADLILSNSEDKSIRVWDMQKRTSLHVFRHENERFWVLAAHPSLNMFAAGHDNGMVVFKIQRERPAYCVSDNLVFYVKGQQIRKLDLTTNKDVALCKLRYPQPFMQPYYSLSFNPAEGTFLLTSRTHNKDLCAFELYKVASNSDGTTEAACVKSTGINALWVARNRFAVLDKAQNVSLRDLTNKELRKLENINTAVDDIFYAGTGMLLLRNDDGLQLFDVQQKIVTASVKVSKVRYVIWSKSMEFAALLSKHTLTLVNRKLEILCTQQESTRVKSGAWDDDSVFLYTTSNHIKYAINSGDCGIVRTLDLPLYILAIRGNVLYCLNRDATPVEVPIDNSDYKFKLALINKRIDEVVNMVRSANLVGQSIIGYLEKKGYPEIALHFVKDEKTRFGLAIECGNLEIALEAAKKLDEPAVWEALGETALLQGNHQIVEMSYQRTKNFEKLSFLYFVTGNTDKLVKMMKIAQARNDAHGHFQTALYTGDVEERVKVLRNCGQTSLAYLAAATHGYSAEAEELKAELESRQQPIPPVDPNARLLVPPPPVARLEENWPLLASARGTFDAQLLGLGGQSAPTNVGGVKPAAAAFAVMDDDDGDVGNEAWGDDEYLVGEDGELDVDEGEGPVDGDEEGGWDVDDDLALPDVTDDQGGDDDEEVVPNPAPAVSSEWPNVSRLAADHVAAGSFGTAIKLLHDTIGVVEAAPFKDVFVKAYAASRLSHRGWGGLGPAGPVSIHPVRNFQEDKNHLPVAAFKLSQLAKKLQKAYQMTTNGKFGDAVEKLREILLSVPLIVVSSKQEVAEAEQLITITREYLAALLLETYRKDLPKTNLEDAKRNAELAAYFTHFELQPMHRILTLRSAINTFFKMKQMKTCASLCKRLLELAPKPEVAAQIRKVLTAAEKDNTDAHQLTYDEHNPFVVCSRQFVPLYRGRPLCKCPYCGASYSEGLEGEVCNVCQVAEVGKNVLGLRISTLKS | not soluble
2 | MGSDKIHHHHHHMTCKRALTAYPELLSRTVAAPSWVMPGTVRDNAIFLSGEVDEVGLCFFETAACLAYGENDLPEHLADLPLGWHVHLPGDLPWCDGGAEAAVPALRLMDKVAFLGAHRAVLHPPVGFADGAARLVAFVRAWEAAGRNPEDLCLENIRGEDLTGLWRTLCDLGCKVCLDMGHVLSYGQYGLLSLPGLSGRTSMLHANAPGPAGRHLSLDTLDGAGGGVGRAMCALLPDDAVVMVEVFDWEGVRRSLPLLETWFAAQR | not soluble
3 | SLNSSIDVDSLMRSVSRVFKFIDMPTEGKPTKSTKPYKNGQLSKVMIIENSHVKKDDIWPSGGQMTVKDLTAKYTEGGNAILENISFSISPGQRVGLLGRTGSGKSTLLSAFLRLLNTEGEIQIDGVSWDSITLQQWRKAFGVIPQKVFIFSGTFRKNLDPYEQWSDQEIWKVADEVGLRSVIEQFPGKLDFVLVDGGCVLSHGHKQLMCLARSVLSKAKILLLDEPSAHLDPVTYQIIRRTLKQAFADCTVILCEHRIEAMLECQQFLVIEENKVRQYDSIQKLLNERSLFRQAISPSDRVKLFPHRNSSKCKSKPQIAALKEETEEEVQDTRL | soluble
4 | MTTQITAEDVEAYLGTRENSPTMSDTVDAAVDLVESWKSTPQEKWPPRWRRGCIMLAARMDRRRNSPAGVDTMGEIGVVYVSRKDPDIAQLLEIGDFSKPIAR | not soluble
5 | MKSSMAMIKHKKELVEYARHLKLPNLAEHVGVILHEAQEKQLTYSEFLANCLAREIQGRERKSYLTRLKLSGLPAKYDLDLYDYDRAEGMDNRRLRELRELVWVNQAYNLLLVGPSGTGKTFIAAGLVYEAVKAGYEAYLMTLEELLTCLKTKEVSAHAMKTYKRIMKARLLAIDDATLFPLKREEAVLLFKLVNDFQERTSLIITANKALTRWLETLEDEAVTAALLDRLLYCCEIIRLGGTSYRMQNRKTIFSNQNTDIGTLEHHHHHH | not soluble
6 | MGSDKIHHHHHHVPRVRTVKEDHRAGVWCARGMTGLLRRLHAVLDEFNAAYPWDHNAYYHRWILRQLPPRFGRALDAGSGSGDLARLLAGRADRVCGIDIDPVITARARELTDPAAPVVFTVGDVLTDTPAGPYDVVTCVAAVHHMPLAEALTCFRDLLAPGGTLVVVGLYRAHDPIDVLLDGVSVVLNPLIGWVRHRGRRAPRPVSMTAVTTPATMTFAEIVAEARRVLPRARLRRRLLWRYTLVWRKP | not soluble
7 | MSLKVFVTGATGFIGASIARELLKDGCHVRVLARPGSDRRNLDGLDVEVCEGDLCSPESLDRGVKGCEVLYHAAADYRLWTRNPAAMYAANVEGTRHVLDAALRHGVSRVVYTSSVGTLGNPGDGTPGTEATPVTFADMVGDYKKSKFLAEREAETFLARGLPLVIVNPSTPVGPHDVKPTPTGKIIVDFLNRAMPAYLDTGLNIIDVEDCAQGHILAAQHGRIGEKYILGHENLTLRQIFSLLETVTGLAAPKVRLPYLPILAAAYANEALSRITGREPLIPLAGVQMARKFMYFDSSKAVKELGLPQRPAVEALGRAVEWFRANGYVREGHHHHHH | soluble
8 | MFCKRFIALVTMLTLVCSMLLPYSNASAETGSALNIEAGAAILVEANSGKILYQKNADELLSIASMTKMMSEYLVHEAVDKGKFKWDQKIKVSEYAYKVSQDASLSNVALENGGSYTVKELYEAMAIFSANGATIALAEAIAGKEVDFVKMMNDKSKELGLKNYKFVNSTGLTNKDLKGMHPEGTTADEENKMSAKDVATLAQHLIKDYPKVLDTAKIPKKEFRPEKEKFAMSNWNWMLKGLVKEYDGVDGLKTGSTPEAGDCFTGTVERNGMRFISVVIKTSSHTARFDETKKLYDYGFANFEMKQMYKKGSSVKGQETVRVENAKDKDVAVQTKQAISLPVPKGSKEVYKTELKESSKGQEAPIKKGAALGQMVITPKDTNDPGFLTGKSLQVDLVTTSEVEEANWFTRAMRGIGSFFSGIWNSAVDTVKGWF | not soluble
9 | MSLNKKDVIRTLERIAIYMELKGENPFKISAYRKAALALEQDERTLDEIEDPATLKGIGKGTAEVILDLKETGESSLMHELKESVPAGLIPLLQLPSLGGKKIAKLYQELGVIDLATLKEACEQGNVRELAGFGKKSEEKILAAIAELSNKPERFPIAFVLPIAVEIEAQLKEMDSIHRFSRAGSLRRMRETVKDLDYIISTDDPEAVREQLLQLKHMGKTIASGDTKVSVELEYDYPISVDFRLVKDEAFATTLHHFTGSKEHNVKMRQLAKARGEKISEYGVENTETGDVKTFADESAFFKHFGLTYIPPEAREDQGEVELFKEAHALVTLEDIRADLHMHTTWSDGAHSIEEMAEAARQRGYEYIAITDHSKFLRVANGLSEERLKEQHAKIRELNERYDDFTIFTGIEMDILPDGTLDYEDPILAEVDFVIASIHSSFSQPREKIMDRLKTALVNHHVDLIAHPTGRLIGRREGYDVDVDMLIELAKETNTALELNANPNRLDLNSEALKKAQEQGVVMAINTDSHTKETFSYMEYGVGVARKGLIRPETVINTWPLERFCAFLRRHQPEGHHHHHH | soluble
10 | MHPDQKKTFKEKNDIRKKLFNSTKEERLDWRKMKDEKKRKNEEKIIKEAEEAKKAKIEKVDHTPPFTISIAVPGQFLNNAQSAELRTYMAGQIARAATLYRVDEIIIYDESCRMTDEAVNAYYNGTWQGNLIPAETNYEGCFYLAKILEYLECPQYLRKDLFPIQKPLKNAGLLNPLDAQHHLKYDEKTLRFREGVVLKKRSKDGRGPICNIGLEKEFEIDSDAVQLPPYTRVTVEIKNLTEQCKLYRGSITSGATVTRETGLYWGYSVRLMTGLQKVLQAKKFDIVAGVSPRGKLASQMDVCILNKPKILLVFGGVAGVDAAVESEELAEWRRAEDAFDVLIRTTSLSNGSRSERVEENVLSVLAQVQCHLETLNAL | not soluble
11 | QPKPEVPQCVADWIEECKEEDLTLKGLFSNSDMPAKIFDWIFGSDENCRLMAEAWINGYTVEKEKLYTVDLPNGQPLVRGINTLYFSQNLATENVKLTESEIRKDFEWAWQFAEEVTE | not soluble
12 | MGSDKIHHHHHHMSLQISLVNNISQIGSQAWHALFGSEHPFTRYEYLLALESSGACSAQTGWQPRHLIVIEKAAVTENPHSAAAKTDNILALMPLYEKHHSYGEYVFDWAWAEAYERHGLAYYPKLLCAVPFTPVTGTRLAMDSRLDVGQQDAVWTAVVDFLQQQIMTQGYSSWHYLFTNATQSAVLAQAHLTPPSQSQSNQAQRNQTQALQPQANSQASAIKGQPIARLGTQFHWFNRGYRQFDDFLQVMTSRKRKNIQKERAAISKFELSFEFIHGDNITSSQWRSFSLCYQQTYLKRSGHTGYLNSEFFQAIGTSMADAIRLLRVSDKAGKDIAYALYFASDSRLYGRYWGAFEDIPGLHFEACYYQGIEYAIAQGLSCFDAGAQGEHKVLRGFEPIETHSFHAIAHEGFKGAIEDFCQQERRNMQIYMAEQAKNLPYKNSQ | not soluble
13 | MSLASDPFEAPIPGLHACIDPIAVAHNLEVLRQRLGVGVDGPRIWATVKADAYGHGLHNVLPGLRAADGIAVRHLHEAHQCRRVGWSGPIMVYAGLTHEREAALLTLQQLHLVITDMTQLEWLPGKPLYSCAPWIWLRYIGATRLGGLDASEYRRAYARCRELQQHGALRGVGHLNHYANAASVGDLEREHADFEACIRGLPGPVSTCNSAAACVLPTMAARTDWVRPGLALYGVSPIPGREGHHHHHH | not soluble
14 | MKKTKFSSYEEYRNYFKRLIDLERRAQTELHLKEIKTLSGKEREKRGRAILNLRAKFLGRGLGGVYLVRYSRPQGLPKTEISTGDIVLVSKGKPTVKEVQGTVAEKTNYYLVVAFRDKPPPYALGKDVRIDLFSNEITFKRMEEALKNFKEHPLRDFILGKKVLEHHHHHH | soluble
15 | MGHHHHHHSHMPVIQTESEHKPPVNGSYFAHVNPADGGCLLEKYSEKCHDFQCALLANLFASEGQPGKVIEVKAKRRTGPLNFVTCMRETLEKHYGNKPIGMGGTFIIQKGKVKSHIMPAEFSSCPLNSDEEVNKWLHFYEMKAPLVCLPVFVSRDPGFDLRLEHTHFFSRHGEGGHYHYDTTPDIVEYLGYFLPAEFLYRIGQPKETHSIGRD | not soluble
16 | MKELTNEELRGIQLEQLKYIDRICRENGIEYTLAGGSLIGAIRHGGYIPWDDDIDIELTRPHYDHLISVLMDQLPNEKYALLHYKVRETYLPFAKLYDTRTSFTSKIDNLNRGTGVFLDIFPMDILPDNEEERQVFKKEFLKKAIQLTASNPHGLDFASSSKKIYFWGKLVLWMPQHIRFYGKYRILAEKLDEFMQKYRNSDNQLISYLYTGYKKAIFPKEIWEEYEDVKFEGLTARKLKNHEEYLTRQYGDYMKLPPENERVNHDYYKWYWKEKNEILEHHHHHH | soluble
17 | MGSDKIHHHHHHMLGLPGEMQYVPGIHSPNEGPRPMTIQRKQTREVRIGKVRIGGANPVVVQSMTNTDTRDVEQTVEQIRQLQEAGCEIVRLAVLNEDAAWAIKPIRSQVSVPLVADIHFDHRLAVSALEAGVDALRINPGNIGTRAAVDRVVDAAKAHNAVIRIGVNSGSLETDLIDQYGGPTPEAMVESAFRHIRMLEDRNFGDIKVSLKSSSVSRCIEAYTLLSAKCDYPLHIGVTEAGTVLRGSIKSAVGLGVLLWQGIGDTLRVSLTSDPVAEMAVAWEILRSLGLRSRGPEIIACPTCGRCEIGLIALAEEVERRLEGETESFKVAVMGCVVNGPGEAREADLGIAGGRDKGIIFRKGEIVRTVKGGSNLLAAFMEELDTFLAHRRAERKDD | not soluble
